According to the supplement of paper PMC10126150:
± gives the standard deviation of the averaged measurements.

Test system: ATP
Assay: switch fluorescence ratio, 500 uM ATP over buffer (Cy3 cluster intensity, sum of 5 cycles each) (fold (ratio)); higher = stronger signal-on switching upon ATP binding; sequences stand for … in TCGTCGGCAGCGTCAGATGTGTATAAGAGACAGTTTTTTTTTTTTTTTTTTTTTTTTT…TC
Details: aptamer strand: ATP DNA aptamer (quencher-CACCTGGGGGAGTATTGCGGAGGAAGG + anchor), 100 nM annealed; ATP concentration: 500 uM
Method in brief: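 The quencher-labelled ATP aptamer, at 100 nM, was annealed to Cy3-labelled switching-strand clusters on a modified Illumina MiSeq flow-cell. The clusters were imaged in selection buffer, then after 15 min with 500 uM ATP at 22 °C, and this buffer/ATP cycle ran five times with NaOH stripping and re-annealing between runs. Per-cluster fluorescence ratios, summed target-cycle over summed buffer-cycle Cy3 intensity, were averaged per switch-domain sequence. Clusters outside 100-1000 RFU were excluded.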
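Further: ATP exposure 15 min at 22 °C before imaging.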

Row | Sequence | switch fluorescence ratio
1 | AAATTAAATC | 0.993 ± 0.043
2 | AAATTACTAG | 1.01 ± 0.048
3 | AAATTAGATG | 1.009 ± 0.0051
4 | AAATTAGGGA | 0.978 ± 0.046
5 | AAATTCGGGA | 0.9799 ± 0.0032
6 | AAATTCTGCG | 0.941 ± 0.0098
7 | AAATTGCTAG | 0.997 ± 0.032
8 | AAATTGGCAT | 0.993 ± 0.028
9 | AAATTGGGAT | 0.9636 ± 0.0093
10 | AAATTGGGCG | 0.983 ± 0.021
11 | AAATTGGGTA | 0.991 ± 0.024
12 | AAATTTAAAT | 1.02 ± 0.024
13 | AAATTTACAG | 1.03 ± 0.04
14 | AAATTTCATT | 1 ± 0.041
15 | AAATTTGGGC | 0.961 ± 0.02
16 | AAATTTTCC | 1.34 ± 0.065
17 | AACAACTTTT | 1.04 ± 0.042
18 | AACACAGGTA | 1.06 ± 0.013
19 | AACAGCTGTA | 1.05 ± 0.062
20 | AACAGGACAT | 1.06 ± 0.017
21 | AACAGGACGC | 1.08 ± 0.1
22 | AACAGGTGGG | 1.24 ± 0.023
23 | AACAGTCGCG | 0.968 ± 0.024
24 | AACAGTTGTG | 0.976 ± 0.017
25 | AACAGTTTTA | 0.972 ± 0.011

Row | Sequence | switch fluorescence ratio
26 | AACATATGGG | 1 ± 0.012
27 | AACATGGAGG | 0.968 ± 0.031
28 | AACATTAGGC | 1.05 ± 0.039
29 | AACATTTTTC | 1.01 ± 0.021
30 | AACCAAAAAA | 1.01 ± 0.019
31 | AACCAAAGGT | 1.014 ± 0.0017
32 | AACCAATCGT | 1.03 ± 0.041
33 | AACCAGAGTA | 1.011 ± 0.0039
34 | AACCAGCTGG | 1.04 ± 0.03
35 | AACCAGTTAG | 1.01 ± 0.021
36 | AACCCACATC | 1.303 ± 0.002
37 | AACCCGAGCC | 1.196 ± 0.011
38 | AACCGGGGTT | 0.996 ± 0.046
39 | AACCGTTGAC | 1.21 ± 0.02
40 | AACCTCACTC | 1.49 ± 0.13
41 | AACCTCTCGG | 1.033 ± 0.0039
42 | AACCTGCTCG | 1.1 ± 0.02
43 | AACCTGGGTA | 1.008 ± 0.0035
44 | AACCTGTAGG | 0.987 ± 0.021
45 | AACCTTCGTG | 1.62 ± 0.047
46 | AACGAAACTT | 1.123 ± 0.0042
47 | AACGAATTCA | 1.05 ± 0.017
48 | AACGACGATC | 1.11 ± 0.046
49 | AACGACTGGG | 0.997 ± 0.051
50 | AACGAGTCGT | 0.989 ± 0.029

Row | Sequence | switch fluorescence ratio
51 | AACGCAGCCT | 1.11 ± 0.0027
52 | AACGCAGGAG | 1.48 ± 0.025
53 | AACGCCAGGC | 1.01 ± 0.028
54 | AACGCCGCAT | 1.858 ± 0.0036
55 | AACGCTGGGT | 1.0379 ± 0.00084
56 | AACGGAGCTT | 1.47 ± 0.25
57 | AACGGATTCT | 1.04 ± 0.016
58 | AACGGCGCCA | 0.983 ± 0.025
59 | AACGGGAGAT | 0.991 ± 0.048
60 | AACGGGAGGG | 1.04 ± 0.011
61 | AACGGGCTAG | 0.999 ± 0.014
62 | AACGGGGAGC | 0.983 ± 0.047
63 | AACGGGGGCC | 1.03 ± 0.066
64 | AACGGGGGGA | 0.979 ± 0.033
65 | AACGGGGTAA | 0.948 ± 0.037
66 | AACGGGTGCG | 0.995 ± 0.02
67 | AACGGTACCG | 0.981 ± 0.014
68 | AACGGTGACG | 1.03 ± 0.072
69 | AACGGTTTTT | 0.972 ± 0.036
70 | AACGTAAATT | 1.33 ± 0.31
71 | AACGTAGTGT | 1.01 ± 0.047
72 | AACGTGACAG | 1.06 ± 0.046
73 | AACGTGGGTA | 1.01 ± 0.026
74 | AACGTGGTTT | 1.01 ± 0.025
75 | AACGTGTGTG | 0.95018 ± 1.6e-05

Row | Sequence | switch fluorescence ratio
76 | AACGTTAGCG | 1.002 ± 0.0045
77 | AACGTTGCCC | 1.01 ± 0.025
78 | AACGTTTTTT | 0.991 ± 0.027
79 | AACTAGGTGT | 1.15 ± 0.22
80 | AACTATATCT | 1.05 ± 0.021
81 | AACTATCTTG | 1 ± 0.0027
82 | AACTATGGTC | 1.01 ± 0.036
83 | AACTCAAGGG | 1.0096 ± 0.00058
84 | AACTCGGTCT | 1.03 ± 0.095
85 | AACTCGTAGG | 0.995 ± 0.018
86 | AACTCGTTCT | 1.01 ± 0.011
87 | AACTCTGAGA | 1.03 ± 0.013
88 | AACTGAAGTG | 0.984 ± 0.023
89 | AACTGCGCTG | 1.01 ± 0.035
90 | AACTGGACTC | 1.14 ± 0.013
91 | AACTGGAGGG | 0.969 ± 0.042
92 | AACTGGGACT | 1.02 ± 0.041
93 | AACTGGGGGC | 1 ± 0.031
94 | AACTGGGGGT | 1.02 ± 0.017
95 | AACTGGTCGC | 1.14 ± 0.07
96 | AACTGTTGGG | 0.9928 ± 0.002
97 | AACTTAACGA | 1.0744 ± 0.00011
98 | AACTTATTTG | 1 ± 0.028
99 | AACTTCTATT | 1.016 ± 0.00089
100 | AACTTGGTGT | 0.983 ± 0.016

Row | Sequence | switch fluorescence ratio
101 | AACTTGGTTT | 0.961 ± 0.056
102 | AACTTTAGGT | 0.987 ± 0.023
103 | AACTTTCCGA | 2.36 ± 0.39
104 | AACTTTCCTC | 2.49 ± 0.076
105 | AACTTTGCAG | 1.016 ± 0.0052
106 | AACTTTTTAC | 1.05 ± 0.028
107 | AAGAAAACTT | 1.042 ± 0.0089
108 | AAGAAAGGAA | 0.951 ± 0.029
109 | AAGAAAGGCA | 0.998 ± 0.033
110 | AAGAAAGGGA | 1.03 ± 0.038
111 | AAGAACCCAG | 1.05 ± 0.025
112 | AAGAACTAAA | 1.05 ± 0.081
113 | AAGAACTAGG | 1.03 ± 0.041
114 | AAGAAGCTGA | 0.972 ± 0.019
115 | AAGAAGGACG | 1 ± 0.033
116 | AAGAAGGAGC | 0.974 ± 0.039
117 | AAGAAGTTTG | 0.9879 ± 0.0049
118 | AAGAATCAGA | 0.98 ± 0.015
119 | AAGAATCTCT | 0.968 ± 0.045
120 | AAGACCTTAT | 1.05 ± 0.011
121 | AAGACGTCAC | 1.91 ± 0.14
122 | AAGACGTTTT | 1.014 ± 0.0011
123 | AAGACTCTGG | 0.973 ± 0.044
124 | AAGAGACGGG | 1.009 ± 0.0018
125 | AAGAGCTTTG | 0.99 ± 0.013

Row | Sequence | switch fluorescence ratio
126 | AAGAGGATAG | 0.983 ± 0.043
127 | AAGAGGCTAA | 1 ± 0.036
128 | AAGAGGGGAC | 0.996 ± 0.056
129 | AAGAGTCGTA | 0.969 ± 0.027
130 | AAGAGTGTCG | 0.921 ± 0.056
131 | AAGAGTTAGG | 0.966 ± 0.031
132 | AAGATACCTG | 1.08 ± 0.043
133 | AAGATACGAA | 1.04 ± 0.019
134 | AAGATAGTAC | 1.04 ± 0.024
135 | AAGATAGTGT | 0.9936 ± 0.0057
136 | AAGATATCGA | 1.02 ± 0.014
137 | AAGATGACGC | 1.12 ± 0.13
138 | AAGATGTAGC | 1.006 ± 0.0053
139 | AAGATGTAGG | 1.025 ± 0.0086
140 | AAGATTATTT | 0.989 ± 0.074
141 | AAGATTCATT | 0.99763 ± 0.00055
142 | AAGATTGGGG | 0.977 ± 0.019
143 | AAGATTTTAC | 1.01 ± 0.019
144 | AAGATTTTTT | 1.01 ± 0.016
145 | AAGCAATGGG | 1.45 ± 0.037
146 | AAGCACCCGT | 1.12 ± 0.058
147 | AAGCAGGTTA | 1.01 ± 0.0062
148 | AAGCATAGGA | 1.02 ± 0.02
149 | AAGCATCATA | 0.988 ± 0.021
150 | AAGCATGTTG | 0.966 ± 0.021

Row | Sequence | switch fluorescence ratio
151 | AAGCATTAGT | 1.05 ± 0.04
152 | AAGCATTGTT | 0.999 ± 0.035
153 | AAGCCAGTGG | 1.014 ± 0.0035
154 | AAGCCCGGGA | 1.45 ± 0.67
155 | AAGCCGGGCT | 1.02 ± 0.029
156 | AAGCCGGGTC | 0.991 ± 0.0014
157 | AAGCCGTGCG | 1.02 ± 0.014
158 | AAGCCGTGGC | 0.975 ± 0.11
159 | AAGCGGTGGG | 1.05 ± 0.032
160 | AAGCGGTTAA | 1.011 ± 0.0022
161 | AAGCGTTTTG | 0.988 ± 0.0017
162 | AAGCTAATTC | 1.186 ± 0.0069
163 | AAGCTAGTTT | 1 ± 0.013
164 | AAGCTCAATC | 1.05 ± 0.032
165 | AAGCTCTGTG | 0.95 ± 0.027
166 | AAGCTGAGAT | 1.01 ± 0.024
167 | AAGCTGCATG | 1.01 ± 0.018
168 | AAGCTGGCTG | 0.945 ± 0.029
169 | AAGCTGGCTT | 1.024 ± 0.0056
170 | AAGCTGGTAC | 1.99 ± 0.1
171 | AAGCTGGTTT | 0.982 ± 0.032
172 | AAGCTTGTTG | 0.992 ± 0.038
173 | AAGCTTTTCA | 1.03 ± 0.041
174 | AAGCTTTTGT | 0.9849 ± 0.0084
175 | AAGGAAACAC | 1.96 ± 1.3

Row | Sequence | switch fluorescence ratio
176 | AAGGAAAGGG | 1.21 ± 0.25
177 | AAGGAAGGGT | 1.02 ± 0.041
178 | AAGGAAGTGC | 1.003 ± 0.0086
179 | AAGGAGTGAC | 1.05 ± 0.06
180 | AAGGATAGGA | 1 ± 0.014
181 | AAGGATGCAT | 1.03 ± 0.038
182 | AAGGCAATTA | 1.15 ± 0.033
183 | AAGGCACGCT | 1 ± 0.065
184 | AAGGCCAATA | 1.05 ± 0.033
185 | AAGGCCGTGA | 1.03 ± 0.085
186 | AAGGCGAAAA | 0.976 ± 0.013
187 | AAGGCGAGAC | 1.06 ± 0.023
188 | AAGGCGCGGG | 0.9891 ± 0.0081
189 | AAGGCGCGGT | 1.03 ± 0.011
190 | AAGGCGGGAG | 0.96 ± 0.032
191 | AAGGCGGGCT | 0.98942 ± 7e-05
192 | AAGGCTATGG | 0.988 ± 0.027
193 | AAGGCTCTTG | 0.986 ± 0.018
194 | AAGGCTGGGG | 0.9781 ± 0.0058
195 | AAGGCTGGGT | 1.02 ± 0.023
196 | AAGGCTTCTT | 1 ± 0.015
197 | AAGGGAAGGC | 1 ± 0.018
198 | AAGGGAATAG | 1.02 ± 0.014
199 | AAGGGACGGG | 1.01 ± 0.027
200 | AAGGGAGGCT | 1.01 ± 0.066
